Assay: yeast display, Sf9 membrane polyspecificity reagent, FACS + sequencing; frameworks hold sequencing errors
Summary of the method: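 Sorting gates, low and high (top ~1%), were placed on anti-HA fluorescence to track expression and on streptavidin fluorescence to track reagent binding. A clone's polyreactivity label is taken from the gate it came out of. The reagent was 10% biotinylated, detergent-solubilized Sf9 membrane, applied for 1 hour at 4 °C to galactose-induced yeast display cells.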

Row | Sequence | polyreactivity (PSR sort gate)
1 | QVQLVESGGGLVQAGGSLRLSCAPSGRIFNAYAMGWYRQAPGKERELVAAITVSGTRTYYADSVKGRFTISRDNAKNTVYLQMNSLKPEDSAVYYCNAGRGGVLDYGYWGQGTQVTVSS | high polyreactivity
2 | QVQLVESRGVLVQAGGSLRLSCAASGRTFYFYVKGWYIQEPGKERELVARISYSDGSTYYADSVKGRFTISRDNAKNTVYLQMNSLKPEDTAVYYCNAYDPYFGRRYDYWGQGTQVTVSS | low polyreactivity
3 | QVQLVESGGGLVQAGGSLRLSCAASGRIFRYNAMGWYRQAPGKERELVAAITNGGSTNYADSVKGRFTISRDNAKNTVYLQMNSLKPEDTAVYYCNAQGRRYSQRYYYWGQGTQVTVSS | high polyreactivity
4 | QVQLVESGGGLVQAGGSLRLSCAASGSTYDNNRMGWYRQATGKERELVASITFNVGSTYYADSVKGRFTISRDNAKNTVYLQMNSLKPEETAVYYCAADDLNLSQALGYDYWGQGTQVTVSS | low polyreactivity
5 | QVQLQESGGGLVQAGGSLRLSCAASGSIFQLHIMCWYRQAPGKERESVAAISYGTSTYYADSVKGRFTICRDNAKNTVYLQMNSPKTDDTAVYYCAALFLVSKHHHYWGEGTQVTVSS | low polyreactivity
6 | QVHLVESGGGLVQAGGSLRLSCAASGSIFWYYGMGWYRQAPGKERELVASITSGGSTNYADSVKGRFSISRDNAKNTVYLQMNRLKPEDSAVYYCNTDDDSSSTGYYSWGQGTQVNVSS | low polyreactivity
7 | QVQLVESGGGLVQAGGSLRLSCAPCGFTFRRNAMGWYRQAPGKERELVAAINWSGGSTYYADSVKGRFTLSRDNAKNNVYLQMNSLKPEDTAVYYCNRRGQYTFWPIHEYWGQGTQVTVSS | high polyreactivity
8 | QVQLVESGGGLVQAGGSLRLSCAASGRTLYWYAMGWYRQAPGKERQLVAVISGSGASTYYADSVKGRFTISRDNAKNTVYLQMNSLKPEDTAVYYCNARDYRRYGRYHWQDYDYWGQGTQVTVSS | high polyreactivity
9 | QVQLVESGGGLVQAGGSLRLSCAASGSIFNYYAMGRYRQAPGKERELVAAIETTGGSTYYADSVKGRFTISRDNAKNTVYLQMNSLKPEDTAVYYCAATWAKPWYYEYDYWGQGTQVTVSS | low polyreactivity
10 | QVQLVESGGGLVKAGGSLRLSCAASGRIFKYYAMGWYRQAPGKERELVAAISSVGSTNYADSVKGRFTISRDNAKNTVYLQMNSLKPEDTGVYYCAAPYQHYDVNYDSWGQGTQVTVSS | low polyreactivity
11 | QDQLVESGGGLVQAGGSLRLSCAASGSTIWGNAMGWYRQAPGKERELVAAITSTGSTNYADSVKARFTISRDNAKNTVYLQMNSLKPEVTAVYYCATAYYHTYWPTRRYYYWGQGTQVTVSS | high polyreactivity
12 | QVQLVESGGGLVQAGGSLRLSCAASGLTFYYYAMGWYRQAPGIEREFVAAINWDGGSTYYADSVKGRFTISRDKAKNTVYLQMNSLKPEDTAVYYCATGDTDYDYWGQGTQVTVSS | low polyreactivity
13 | QVQLVESGGGLVQAGGSLRLSCAASGFTFWRYAMGRYRQAPGKERELVAGISSGGSTNYADSVKGRFTISRDNAKNTVYLQMNSLKPEDTAVYYCAARGNYFYGIYGYWGQGTQVTVSS | low polyreactivity
14 | QVQLEESGGGLFQAGGSLRLSCAASGTTQNGYTMGWYRQAPGKEREMVATINRGSSTHYADSVKGRFTISRDNAKNTVYLQMNSLKPEDTAVYYCNKRYPLGTEYYYLGQGTQVTVSS | high polyreactivity
15 | QVQLVESGGGLVQAGGSLRLSCAASGSIFGNYAMGWYRQAPGKEREFVAAITWIGGSSYYADSVKGRFTISRDNAKNTVYLQMHSLKPEDTAVYYCARTSYARYRNGWTYDHWGQGTQVTVSS | low polyreactivity
16 | QVQLVESGGGLVQAGGSLRLSCAASGSIFRGYAMGWYRQAPGKGRELVAAISWSGASTYYADSVKGRFTISRDNAKNTVYLQMNSLKPEDTAVYYCAAVQWTGYPFDYWGQGTQVTVSS | high polyreactivity
17 | QVQLVESGGGLVQAGGSLRLTCAASGITFYDNAMGWYRQAPGKERELVAGISYDGDSTYADSVKGRFTNSRDNAKNTVYLQMNSLKPEDTAVYYCAADSSGEYPGGYWGQGTQVTVSS | low polyreactivity
18 | QVQLVESGGGLVQAGGSLRLSCAASGFTFAYNAMGWYRPAPGKERELVAAITTRTGTTYYADSVKGRFTISRDNAKNTVYLQMNSLKPEDTAVYYCAKRGYYRYYYWGQGTLVTVSS | high polyreactivity
19 | QVQLVESGGGLVQAGGSLRLSCAASGFTFTAYAMGWSRQAPGKERELVAAISSGGSTYYADSVKGRFTISRDNAKNTVYLQMNSLKPEDTAVYYCAAVGVYTVKREYWGQGTQVTVSS | low polyreactivity
20 | QVQLVESGGGLVQAGGSLRLSCAASGRTLKRNAMGWYRQAPGKERELVAAISFRVTNTYYADSVKGRFTISRDNAKNTVYLQMNSLKPEDTAVYYCAVPDSRFYSPRRVSPHDYWGQGTQVTVSS | high polyreactivity
21 | QDQLVESGVGLVQAGGSLRLSCAASGRILGRNAMGWYRQAPGKERELVAAISSGVSTNYADSVKGRFTISRANAKNTVYLQMNSLKPEDTAVYYWGQGTQVTVSS | low polyreactivity
22 | QVQLVESGGGLVQAGGSLRLSCAASGSTFRDNTMGWYRQAPGKERELVAAITKSGGSTYYADSVKGRFTISRDTAKNTVYLQMNSLKPEDTAVYYCAAGARPRDKPVYFLYRYDYWGQGTQGTVSS | low polyreactivity

Row | Sequence | polyreactivity (PSR sort gate)
23 | QVQLQESGGGLVQASGSIFHEPTMGWYRQAPGKERELVAGISSGANTYYADSGKGRCTISRDNAKNTVYLQMNSLKPEDTAVYYCNARRRYSLTMDYWGHGTQVTVSS | high polyreactivity
24 | QVQLVESGGGLVQAGGSLRLSCAASGSTLGYYTMGWYRQAPGKERELVAAISYGGGSTYYADSVKGRFTISRDNAKNTVYLQMNSLKPEDTAVYYCAARWGKSWRGYGYWGQGTQVTVSS | high polyreactivity
25 | QVQLVESGGGLVQAGGSLRLSCAASGRTFLGYAMGWYRQAPGKERELVAAINRSGGRTYYADSVKGRFTISRDNAKNTVYLQMNSMKQEDTSVYYCAAYTSYSAYDYWGQGTQVTVSS | high polyreactivity
26 | QVQLVESGGGLVQAGGSLRLSCAASGSIFAANTMGWYRQAPGKERELVAAITGSGASTYYADSVKGRFTISRDNAKNTVYLQMNSLKPEDTAVYYCAARRYTSYYKDGWYAYYYWGQGTQVTVSS | high polyreactivity
27 | QVQLVESGGGLVQAGGSLRLSCAASGFTIYWYAMGWYRQAPGKERELVAAITRSGSSTYYADSVKGRFTISRDNAKNTVYVQMNSLKPEDTAVYYSAALPYTPYYDAYDYWGQGTQVTVSS | high polyreactivity
28 | QVQLVESGGCLVQAGGSLRLSCAASGSTLRSHAMGWYRQAPGKERELVASISAGGSTSYADSVKGRFTISRDNAKNTVYRQMNSLKPEDTAVYYCAADNSVGSYDYWGQGTEVTVSS | low polyreactivity
29 | QVQHVESGGGLVQAGCSLRLCCAASGSTFGGYAMGWSSQAHGNERELVAGITIAVCSTYYADSVKGRFTISRDNAKNTVYLQMNSLKPEDTAVYYCAADGLSWYNYWGPGTQVTVSS | high polyreactivity
30 | QVQLVESGGGLVQAGGSLRLSCAASGSTFSSSAMGWYRQAAGKERELVAAITSSGGSPYYADSVKGRLTISRDNAKNTVYLQMNSLKPEDTAVYYCAAADVIFWLYYYWGQGTQLTVSS | low polyreactivity
31 | QVQLVESGGGLVQAGGSLRLSCAASGSIFLSYDMGWYRQAPGKERELVAAITQSGGSTYYADSVKGRFTISRDNAKNTVYLQMNSLKPEDTAVYYCAKEGDSGYWFDYWGQGTQVTVSS | low polyreactivity
32 | QVQLVESGGGLVQAGGSLRLSCAASGRTFRYNAMGWYRQAPGKERELVATISSSGGSTSYADSVKGRFTISRDNAKNTVYLQMNSLKREDTAVYYCNKRRLVAPGNGMDSWGQGTQVTVSS | low polyreactivity
33 | QVQLVESGGGLVQAGGSLRLSCAASGRIFGNYAMGWYRQAPGKERELVAAITSGARTYYADSVKGRFTLSRDNAKNTVYLQMNSLKPEDTAVYYCAAYHKSYSNRYDYWGQGTHVTVSS | high polyreactivity
34 | QVQLVESGGGLVQAGGSLRLICAASGRIFHYYAMGWYRQAPGKERELVAAIRWSGGDTYYADSVKGRFTISRDNAKNTVYLQMNSLKPEDTAVYYCAAYDHVYEYDYWGQGTQVTVSS | low polyreactivity
35 | QVQLVESGGGLVQAGGSLRLSFAASGSIFVKYAMGWYRQAPGKERELVAAITTGVGSTYYADSLKGRFTISRDNAKNTVYLQMNSLKPEDTAVYYCAVRPPRVRTVFYGGNYWGQGTQVTVSS | low polyreactivity
36 | QVQLVDSGGGLVQAGGSLRLSSAASGFTLLYNAMGSYRQAPGKERELVSTITGGGTTYADSVKGRFTISRDNAKNTVYLQMNSLKPEDTAVYYCATSRVWRLYRYLPQYRGYYYWGQGTQVTVSS | high polyreactivity
37 | QVQLVETGGGLVQAGGSLRLSCAASGFTFGANVMGWYRPAPGKESELVAGITRSGDSTYYADSVKGRFTISRDNAKNTVYLQMNILKPEDTAVYYCAADVYDGEYILDYDYWGQGTQVTVSS | low polyreactivity
38 | QVQLVESGGGLVQAGGSLRLSCAASGSTFIIYAMGWYRQAPGKERELVAAISWSGGSTYYADSVKGRFTISRDNAKNTVYLQMNSLKPEDTAVYYCNAARYYTPWRTWYDYWGQGTQVTVSS | high polyreactivity
39 | QVQLVESGGGLVQAGGSLRLSCAASGRILSHYAMGWYRQAPGKERELVASISGSDGSTYYADSVKGRFTISRDNAKNTVYLQMNSLKPEDTAVYYCAVDSYQTGVYFYYVYWDFDLGYWGQGTQVTVSS | low polyreactivity
40 | QVQLVESGGGLVQAGGSLRLSCAASGFIFSRYAMGWYRQAPGKERELVASISWGGGSTSYADSVKGRFTISRDNAKNTVYLQMNSLKPEDTAVYYCNARVRSHRFNYWGQGTQVTVSS | high polyreactivity
41 | QVQLVESGGGLDQAGGSLRLSCAAYGNTFRGYTMGWYRQAPGKEREFVAAISWSGGRTNYADSVKGRFTISRDNAKNTVYLQMNSLKPEDTAVYYCARDYRARRWGMDYWGQGTQVTVSS | high polyreactivity
42 | QVQLVESGGGLDQAGGSLRLTCAASGIIFFEYAMGWYRQAPGKERELVAAISWRGGRTYYADSVKGRFTISRDNAKNSVYLQMNSLKPEDTAVYYCAADFRSWPYYPWSKYDYWGQGTQVTVSS | high polyreactivity
43 | QVKLVDSGGGLVQAGGSLRISCAASGRIFGRYTMGWYRQAPGKERELVAGITYSGGSTYYADSVKGRFTISRDNAKNTVYLQMNSLKPEDTAVYYCAARLSGSGGFDYWGQGTQVTVSS | high polyreactivity

— the nanobody polyreactivity screen of Harvey et al. (2022)
